Measurements from patent US20210363257A1 (Pieris, published 2021).

Tests used:
[1] = molecular target: cyCD137-Fc (cynomolgus CD137 C-terminally fused to Fc) (cynomolgus); assay: ELISA, cyCD137-Fc coated, detection anti-NGAL-HRP
Procedure: (§1) Recombinant huPD-L1-His or cyPD-L1-His (human or cynomolgus PD-L1 with a C-terminal polyhistidine tag, R&D Systems or Sino Biologics) at the concentration of 1 μg/mL in PBS was coated overnight on microtiter plates at 4° C. After washing with PBS-0.05% T (PBS supplemented with 0.05% (v/v) Tween 20), the plates were blocked with 2% BSA (w/v) in PBS-0.1% T (PBS supplemented with 0.1% (v/v) Tween 20) for 1 h at room temperature. […] Bound molecules under study were detected by incubation with 1:5000 diluted anti-human IgG Fc-HRP (Jackson Laboratory) in PBS-0.1% T-2% BSA. After an additional wash step, fluorogenic HRP substrate (QuantaBlu, Thermo) was added to each well and the fluorescence intensity was detected using a fluorescence microplate reader.
(§2) The same ELISA setup was also employed to determine the binding potency of fusion proteins to CD137, where huCD137-His (human CD137 with C-terminal polyhistidine tag, R&D Systems) or cyCD137-Fc (cynomolgus CD137 C-terminally fused to Fc) was instead coated on a microtiter plate. The testing agents were similarly titrated and bound agents were detected via anti-NGAL-HRP.

[2] = molecular target: T1, huPD-L1-His (human PD-L1 with a C-terminal polyhistidine tag) (human, UniProt Q9NZQ7 19-239); assay: SPR (Biacore), binder captured by anti-human IgG Fc, huPD-L1-His in solution, 25 C, 1:1 model
T1 construct: Bought; also called biotinylated huPD-L1-His
Procedure: (§3) The binding kinetics and affinity of exemplary fusion proteins to huPD-L1-His or huCD137-His (human PD-L1 or human CD137 with a C-terminal polyhistidine tag, R&D Systems) were determined by surface plasmon resonance (SPR) using a Biacore 8K or a Biacore T200 (GE Healthcare).
(§4) The anti-human IgG Fc antibody (GE Healthcare) was immobilized on a CM5 sensor chip using standard amine chemistry: the carboxyl groups on the chip were activated using 1-ethyl-3-(3-dimethylaminopropyl)-carbodiimide (EDC) and N-hydroxysuccinimide (NHS). Subsequently, anti-human IgG Fc antibody solution (GE Healthcare) at a concentration of 25 μg/mL in 10 mM sodium acetate (pH 5.0) was applied at a flow rate of 5 μL/min until an immobilization level of 6000-10000 resonance units (RU) was achieved. Residual non-reacted NHS-esters were blocked by passing a solution of 1M ethanolamine across the surface. The reference channel was treated in an analogous manner. […] After each capture step, the needle was washed.
(§5) Double referencing was used and the 1:1 binding model was used to fit the raw data.

[3] = molecular target: T2, human PD-L1 expressed on cells (human, UniProt Q9NZQ7 19-290); assay: flow cytometry, Flp-In-CHO::huPDL-1 cells
T2 construct: whole, on cells; also called Flp-In-CHO::huPDL-1; RKO cells
Procedure: (§6) The geometric means of the fluorescence intensity were used to calculate EC₅₀ values using nonlinear regression (shared bottom, SLOPE=1).
(§7) 5×10⁴ cells per well were incubated for 1 h in ice-cold PBS containing 5% fetal calf serum (PBS-FCS). A dilution series of the fusion proteins and control antibodies were added to the cells and incubated for 1 h on ice. Cells were washed twice with PBS and then incubated with a goat anti-hIgG Alexa647-labeled antibody for 30 min on ice. Cells were subsequently washed and analyzed using iQue Flow cytometer (Intellicyte Screener). Mean geometric fluorescent signals were plotted and fitted with Graphpad software using nonlinear regression (shared bottom, SLOPE=1).

[4] = molecular target: T3, cynomolgus PD-L1 expressed on cells (cynomolgus); assay: flow cytometry, Flp-In-CHO::cynoPDL-1 cells
T3 construct: whole, on cells; also called Flp-In-CHO::cynoPDL-1
Procedure: as §6, §7

[5] = molecular target: T1, huPD-L1-His (human PD-L1 with a …); assay: ELISA, huPD-L1-His coated, detection anti-human IgG Fc-HRP
Procedure: as §1

[6] = molecular target: T4, huCD137-His (human CD137 with a C-terminal polyhistidine tag) (human, UniProt Q07011 24-186); assay: dual-binding ELISA, huCD137-His coated, binder titrated, detection with biotinylated huPD-L1-His
T4 construct: Bought; also called huCD137-His-Bio

[7] = molecular target: T5, huPD-L1-Fc (recombinant human PD-L1 Fc fusion) (human, UniProt Q9NZQ7 19-239); assay: competitive ELISA, huPD-1-His coated, 15 nM huPD-L1-Fc tracer, binder titrated
T5 construct: Bought; also called tracer huPD-L1-Fc
Procedure: (§8) Recombinant huPD-1-His (Acrobiosystems) in PBS (1 μg/mL) was coated overnight on microtiter plates at 4° C. The plates were washed five times after each incubation step with 100 μL PBS-0.05% T (PBS supplemented with 0.05% (v/v) Tween 20). The plates were blocked with 2% BSA (w/v) in PBS-0.1% T (PBS supplemented with 0.1% (v/v) Tween 20) for 1 h at room temperature and subsequently washed again. […] The mixtures of fusion proteins and the tracer were added to the plates and incubated for 20 min at room temperature following by five washing steps with 100 μL PBS-0.05% T. Subsequently, a 1:5000 dilution of goat-anti human IgG-Fc HRP (Jackson) was added to the wells and incubated for 1 h. After an additional wash step, fluorogenic HRP substrate (QuantaBlu, Thermo) was added to each well, and the fluorescence intensity was detected using a fluorescence microplate reader.

[8] = molecular target: T1, huPD-L1-His (human PD-L1 with a …); assay: dual-binding ELISA, huPD-L1-His coated, binder titrated, detection with biotinylated huCD137-His
Procedure: Recombinant huPD-L1-His (R&D Systems) in PBS (1 μg/mL) was coated overnight on microtiter plates at 4° C. The plates were washed five times after each incubation step with 100 μL PBS-0.05% T. The plates were blocked with 2% BSA (w/v) in PBS-0.1% T for 1 h at room temperature and subsequently washed again. Different concentrations of tested fusion proteins were added to the wells and incubated for 1 h at room temperature, followed by a wash step. […] After washing, a 1:5000 dilution of ExtrAvidin-HRP (Sigma-Aldrich) in PBS-0.1% T-2% BSA was added to the wells and incubated for 1 h. After an additional wash step, fluorogenic HRP substrate (QuantaBlu, Thermo) was added to each well, and the fluorescence intensity was detected using a fluorescence microplate reader.

[9] = molecular target: T6, cyPD-L1-His (cynomolgus PD-L1 with a C-terminal polyhistidine tag) (cynomolgus); assay: ELISA, cyPD-L1-His coated, detection anti-human IgG Fc-HRP
T6 construct: Bought
Procedure: as §1

[10] = molecular target: T4, huCD137-His (human CD137 with a …); assay: ELISA, huCD137-His coated, detection anti-NGAL-HRP
Procedure: as §1, §2

[11] = molecular target: T7, human CD137 expressed on cells (human, UniProt Q07011 24-255); assay: flow cytometry, Flp-In-CHO::huCD137 cells
T7 construct: whole, on cells; also called Flp-In-CHO::huCD137; NFκB-luc2/CD137 Jurkat cells
Procedure: as §6, §7

[12] = molecular target: T8, cynomolgus CD137 expressed on cells (cynomolgus, UniProt A9YYE7 24-254); assay: flow cytometry, Flp-In-CHO::cynoCD137 cells
T8 construct: also called Flp-In-CHO::cynoCD137
Procedure: as §6, §7

[13] = molecular target: T2, human PD-L1 expressed on cells; assay: flow cytometry, RKO tumor cells (PD-L1-positive)
Procedure: as §7
For flow cytometric analysis, RKO cells were incubated with fusion proteins and detected using a fluorescently labeled anti-human IgG antibody as described in Example 6.

[14] = molecular target: T4, huCD137-His (human CD137 with a …); assay: SPR (Biacore), binder captured by anti-human IgG Fc, huCD137-His in solution, 25 C, 1:1 model
Procedure: as §3, §4, §5

[15] = molecular target: T1, huPD-L1-His (human PD-L1 with a …); assay: ELISA, huPD-L1-His coated, detection anti-human IgG Fc-HRP per paragraph 264; the filing does not say that this reagent detects the lipocalin mutein alone
[16] = molecular target: T9, biotinylated huCD137-Fc (human CD137 Fc fusion) (human, UniProt Q07011 24-186, biotinylated); assay: competitive ELISA, antibody SEQ ID NOs: 28 and 29 coated (competitor), 1 nM huCD137-Fc-bio tracer, binder titrated
T9 construct: Bought; also called huCD137-Fc-bio
Procedure: as §8, with “The” for “Recombinant huPD-1-His (Acrobiosystems) in PBS (1 μg/mL) was coated overnight on microtiter plates at 4° C. The”, “testing molecules” for “fusion proteins”, “ExtrAvidin-HRP (Sigma-Aldrich) in PBS-0.1% T-2% BSA” for “goat-anti human IgG-Fc HRP (Jackson)”
Competition data for an exemplary experiment are shown in FIG. 14, where the x-axis represents testing molecule concentration and the y-axis represents the measured trace molecule concentration. The data were fit to a 1:1 sigmoidal curve, where the IC₅₀ value and the maximum signal were free parameters, and the slope was fixed to unity.

| EC50 [1] [nM] | Kd [2] [nM] | koff [2] [s⁻¹] | kon [2] [M⁻¹ s⁻¹] | EC50 [3] [nM] | EC50 [4] [nM] | EC50 [5] [nM] | EC50 [6] [nM] | IC50 [7] [nM] | EC50 [8] [nM] | EC50 [9] [nM] | EC50 [10] [nM] | EC50 [11] [nM] | EC50 [12] [nM] | EC50 [13] [nM] | Kd [14] [nM] | koff [14] [s⁻¹] | kon [14] [M⁻¹ s⁻¹] | binding result [15] | IC50 [16] [nM] | Binder |
| --- | --- | --- | --- | --- | --- | --- | --- | --- | --- | --- | --- | --- | --- | --- | --- | --- | --- | --- | --- | --- |
| 0.21 | 0.537 | 0.000861 | 1.6e+06 | 4.09 | 3.37 | 0.2 | 2.3 | 2.8 | 0.49 | 0.17 | 0.14 | 4.69 | 3.66 | 0.53 | 5.73 | 0.000224 | 39100 |  |  | fusion protein SEQ ID NOs: 90 and 91 (bispecific antibody, human IgG4 S228P, kappa, F234A L235A, Antibody-lipocalin mutein fusion, IgG4 S228P backbone) heavy: not shown light: EIVLTQSPDTLSVTPKEKVTLTCRASQSIGTNIHWFQQKPGQSPKLLIKYASESISGVPSRFSGSGSGTDFTLTINSVEAEDAATYYCQQSNSWPYTFGQGTKLEIKRTVAAPSVFIFPPSDEQLKSGTASVVCLLNNFYPREAKVQWKVDNALQSGNSQESVTEQDSKDSTYSLSSTLTLSKADYEKHKVYACEVTHQGLSSPVTKSFNRGECGGGGSGGGGSGGGGSQDSTSDLIPAPPLSKVPLQQNFQDNQFHGKWYVVGQAGNIRLREDKDPIKMMATIYELKEDKSYDVTMVKFDDKKCMYDIWTFVPGSQPGEFTLGKIKSFPGHTSSLVRVVSTNYNQHAMVFFKFVFQNREEFYITLYGRTKELTSELKENFIRFSKSLGLPENHIVFPVPIDQCIDG |
|  |  |  |  |  |  |  |  |  |  |  | 0.27 |  |  |  |  |  |  | no binding (tested: 100 nM) | 2.6 | CD137-specific lipocalin mutein SEQ ID NO: 42 (designed binder, Mutein of mature human NGAL) QDSTSDLIPAPPLSKVPLQQNFQDNQFHGKWYVVGQAGNIRLREDKDPIKMMATIYELKEDKSYDVTMVKFDDKKCMYDIWTFVPGSQPGEFTLGKIKSFPGHTSSLVRVVSTNYNQHAMVFFKFVFQNREEFYITLYGRTKELTSELKENFIRFSKSLGLPENHIVFPVPIDQCIDG |
